# Laboratory results taken from patent US20050123944.
# Tested on: BamHI
# Test: EMSA
# Settings: value is complex half-life, not a rate; 5 mM CaCl2, no Mg2+; 2 nM BamHI, 100 pM DNA, 6000-fold unlabeled competitor
substance,measurement,value
DNA duplex with single BamHI site,complex half-life (min (half-life)),39600
